The assay deals with TAG-72 antigen (tumor-associated glycoprotein 72) (human). The assay is described as follows: competition RIA against 125I-labeled CC49 IgG (competitor), TAG-72 in a human breast carcinoma extract.

Substance “CC49/212 single-chain antigen-binding protein (monomer) (scFv)” gave a fold higher protein concentration needed to displace the labeled CC49 IgG (against unlabeled CC49 IgG and bivalent CC49/212) of 10 fold.

The record behind these values is US20060063715A1.
